# Data published in patent US20130288923, “Nucleotide-Based Probes and Methods for the Detection and Quantification of Macromolecules and Other Analytes” (THE REGENTS OF THE UNIVERSITY OF CALIFORNIA, published 2013).
# B1: TBP electrochemical probe (structured_DNA)
# DNA: GAATAGGTTCCTATAAAAGGTTGGTTTTATAAACCTATCCTATTC
# Target: TATA binding protein (TBP) (UniProt P20226 P20226:1-339)
# Assay: square wave voltammetry; nM detection in buffer and in 250 ug/mL HeLa nuclear extract
# Conditions: tags: recombinantly expressed and purified (Bonham 2009); label: 5'-C6-thiol (gold electrode), internal methylene blue; double stem-loop / single stem-loop switch containing TBP recognition duplex
# Description: The ability of the TBP transcription factor electrochemical probe to function in HeLa nuclear cell extract was also tested (FIG. 14(b). The probe directed against TBP was titrated with its target protein against a background of 250 μg/mL crude HeLa nuclear extract (FIG. 14(b), producing a binding curve similar to that observed in buffer (FIG. 14(b). This binding curve was slightly offset from the curve obtained in buffer. Without being limited to any particular theory, a possible explanation for this shift was that this was a contribution from the endogenous TBP present in cell extract. The TBP transcription factor electrochemical probe provided the convenient quantification of transcription factors in cell extract. The sensor's response in buffer, cell extract and, finally, extract to which a large excess of TBP had been added were measured. These measurements were used to calculate the concentration of TF in the sample, C, via the following relationship: […]
# Sequence of TATA binding protein (TBP) (P20226 whole entry, one chain of several): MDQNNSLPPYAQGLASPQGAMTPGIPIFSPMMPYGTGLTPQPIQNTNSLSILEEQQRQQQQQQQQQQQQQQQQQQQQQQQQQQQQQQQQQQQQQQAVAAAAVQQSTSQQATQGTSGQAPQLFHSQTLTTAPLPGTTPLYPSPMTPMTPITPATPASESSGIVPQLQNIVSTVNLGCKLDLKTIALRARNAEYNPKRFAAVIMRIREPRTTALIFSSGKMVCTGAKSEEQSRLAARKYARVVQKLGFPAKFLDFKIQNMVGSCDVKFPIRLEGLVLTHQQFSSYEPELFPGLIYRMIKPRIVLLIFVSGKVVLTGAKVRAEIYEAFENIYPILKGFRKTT
binder,measurement,value
B1,binding result,binds
